# Data from patent US20160367623A1, “AGONISTS OF GUANYLATE CYCLASE USEFUL FOR THE TREATMENT OF GASTROINTESTINAL DISORDERS, INFLAMMATION, CANCER AND OTHER DISORDERS” (priority 2015, published 2016).
# Bridge positions count the residues as written; N and C are the ends. Ends that are not written are not given here.
# Test system: patients with chronic idiopathic constipation (CIC)
# Assay: First phase 3 CIC trial: treatment emergent adverse events, safety
substance,measurement,setting,value
"Asn^1-Asp^2-Glu^3-Cys^4-Glu^5-Leu^6-Cys^7-Val^8-Asn^9-Val^10-Ala^11-Cys^12-Thr^13-Gly^14-Cys^15-Leu^16 (NDECELCVNVACTGCL; disulfide 4-12, 7-15) [Plecanatide]","Serious TEAE Infections and infestations, Reasonable Possibility: E events",3 mg (N = 474),0
same,"Serious TEAE Infections and infestations, Reasonable Possibility: N patients",3 mg (N = 474),0
same,Serious TEAE Infections and infestations: E events,3 mg (N = 474),0
same,Serious TEAE Infections and infestations: N patients,3 mg (N = 474),0
same,"Serious TEAE Infections and infestations, Reasonable Possibility: E events",6 mg (N = 457),0
same,"Serious TEAE Infections and infestations, Reasonable Possibility: N patients",6 mg (N = 457),0
same,Serious TEAE Infections and infestations: % patients,6 mg (N = 457),(0.4) %
same,Serious TEAE Infections and infestations: E events,6 mg (N = 457),2
same,Serious TEAE Infections and infestations: N patients,6 mg (N = 457),2
